According to patent US20200317817A1 (XOMA US, published 2020):

Legend:
[1] = biological target: T1, human PTH2R overexpressed on CHO cells (human, UniProt P49190 25-550); test: flow cytometry on CHO cells overexpressing human PTH2R, 1 hr at 4 C, APC anti-human IgG
T1 construct: whole, on cells; also called CHO human PTH2R
Procedure: Increasing concentrations of anti-PTH1R antibodies were added to CHO cells overexpressing human PTH2R and incubated for 1 hr at 4° C. (FIG. 8). Cells were washed twice with FACS Buffer and antibody binding was detected with anti-human IgG APC. […] Anti-KLH.G2 was used a negative control for binding.
PTH2R has a 51% homology to PTH1R. […] Following two washes, cells were incubated with Allophycocyanin (APC) AffiniPure F(ab′)₂ Fragment Goat Anti-Human IgG (H+L) (Jackson ImmunoResearch, West Grove, Pa.) for 20 minutes at 4° C. Cells were washed twice and resuspended in FACS Buffer. Samples were acquired using BD Cytometer (BD Biosciences, San Jose, Calif.) and data were analyzed using FlowJo (FlowJo, LLC, Ashland, Oreg.) and Prism (GraphPad Software, La Jolla, Calif.). […] Anti-KLH.G2 was used a negative control for binding.

[2] = biological target: T2, mouse PTH1R overexpressed on CHO cells (mouse, UniProt P41593 27-591); test: cell-based or functional assay
T2 sequence (looked up): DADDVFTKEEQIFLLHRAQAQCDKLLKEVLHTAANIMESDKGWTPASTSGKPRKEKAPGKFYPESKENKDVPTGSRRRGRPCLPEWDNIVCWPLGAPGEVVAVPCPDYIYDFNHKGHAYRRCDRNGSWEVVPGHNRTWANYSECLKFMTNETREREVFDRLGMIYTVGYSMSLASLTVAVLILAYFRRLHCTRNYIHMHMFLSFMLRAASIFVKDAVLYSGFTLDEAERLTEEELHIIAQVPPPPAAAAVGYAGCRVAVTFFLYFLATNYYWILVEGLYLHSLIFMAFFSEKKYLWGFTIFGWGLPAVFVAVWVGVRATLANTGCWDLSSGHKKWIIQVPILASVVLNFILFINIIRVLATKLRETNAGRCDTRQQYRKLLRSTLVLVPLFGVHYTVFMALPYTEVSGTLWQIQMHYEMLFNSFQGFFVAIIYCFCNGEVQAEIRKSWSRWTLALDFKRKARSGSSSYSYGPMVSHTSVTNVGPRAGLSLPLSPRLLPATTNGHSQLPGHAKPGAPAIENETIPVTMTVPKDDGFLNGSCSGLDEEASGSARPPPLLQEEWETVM

[3] = biological target: T3, human PTH1R overexpressed on CHO cells (human, UniProt Q03431 27-593); test: cell-based or functional assay
T3 sequence (looked up): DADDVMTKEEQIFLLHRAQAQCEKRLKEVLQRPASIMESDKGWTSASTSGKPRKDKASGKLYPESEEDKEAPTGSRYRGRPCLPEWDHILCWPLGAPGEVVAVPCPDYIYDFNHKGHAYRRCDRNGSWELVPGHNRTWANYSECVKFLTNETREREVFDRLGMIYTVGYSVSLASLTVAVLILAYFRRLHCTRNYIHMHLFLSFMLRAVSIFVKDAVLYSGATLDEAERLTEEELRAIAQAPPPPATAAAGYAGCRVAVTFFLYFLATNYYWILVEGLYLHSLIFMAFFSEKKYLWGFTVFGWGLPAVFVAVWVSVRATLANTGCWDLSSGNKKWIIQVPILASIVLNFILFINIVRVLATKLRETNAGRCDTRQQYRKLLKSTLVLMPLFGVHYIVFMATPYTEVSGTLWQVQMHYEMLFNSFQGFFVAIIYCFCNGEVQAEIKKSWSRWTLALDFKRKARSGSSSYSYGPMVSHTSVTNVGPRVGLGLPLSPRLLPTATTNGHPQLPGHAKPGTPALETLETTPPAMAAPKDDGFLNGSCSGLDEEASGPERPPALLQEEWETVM

[4] = biological target: T4, human PTH1R on Saos-2 cells (endogenous) (human, UniProt Q03431 27-593); test: cell-based or functional assay
T4 sequence (looked up): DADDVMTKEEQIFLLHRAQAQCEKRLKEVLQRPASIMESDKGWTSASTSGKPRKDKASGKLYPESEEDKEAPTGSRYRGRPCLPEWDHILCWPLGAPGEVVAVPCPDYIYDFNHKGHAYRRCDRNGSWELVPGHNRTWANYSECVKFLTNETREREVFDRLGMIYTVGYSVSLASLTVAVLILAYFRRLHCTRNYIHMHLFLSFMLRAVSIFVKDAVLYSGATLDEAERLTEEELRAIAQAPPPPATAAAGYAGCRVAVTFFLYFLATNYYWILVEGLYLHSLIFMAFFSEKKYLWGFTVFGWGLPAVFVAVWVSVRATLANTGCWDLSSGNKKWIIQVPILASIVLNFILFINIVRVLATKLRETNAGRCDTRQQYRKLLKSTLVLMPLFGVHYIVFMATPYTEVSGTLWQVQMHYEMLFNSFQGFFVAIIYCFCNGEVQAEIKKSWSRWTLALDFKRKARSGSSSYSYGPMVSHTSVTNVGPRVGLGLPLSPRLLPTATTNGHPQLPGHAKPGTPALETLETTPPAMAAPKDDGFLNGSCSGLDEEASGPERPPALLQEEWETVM

[5] = biological target: T5, rat PTH1R on UMR106 cells (rat, UniProt P25961 27-591); test: cell-based or functional assay
T5 sequence (looked up): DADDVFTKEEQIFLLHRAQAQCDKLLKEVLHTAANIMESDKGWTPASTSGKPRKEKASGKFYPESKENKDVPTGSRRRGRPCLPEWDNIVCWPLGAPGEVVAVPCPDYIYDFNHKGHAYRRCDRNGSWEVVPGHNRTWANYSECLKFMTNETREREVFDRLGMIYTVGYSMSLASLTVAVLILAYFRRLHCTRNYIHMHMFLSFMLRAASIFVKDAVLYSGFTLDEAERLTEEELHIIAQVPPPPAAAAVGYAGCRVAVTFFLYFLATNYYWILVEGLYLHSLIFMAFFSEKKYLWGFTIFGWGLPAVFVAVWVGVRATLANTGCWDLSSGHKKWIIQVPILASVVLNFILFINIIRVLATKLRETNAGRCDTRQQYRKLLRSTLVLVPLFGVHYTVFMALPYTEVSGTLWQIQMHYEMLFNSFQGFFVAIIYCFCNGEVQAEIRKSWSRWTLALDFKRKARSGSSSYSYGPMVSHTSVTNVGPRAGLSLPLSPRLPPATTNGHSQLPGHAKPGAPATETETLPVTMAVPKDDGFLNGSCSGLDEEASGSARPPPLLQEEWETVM

[6] = biological target: T6, human PTH1R overexpressed on Saos-2 cells (human, UniProt Q03431 27-593); test: flow cytometry on Saos-2 cells overexpressing human PTH1R, in the presence of 3 uM PTHrP, PE anti-human IgG
T6 construct: whole, on cells; also called Saos-2 human PTH1R cells
T6 sequence (looked up): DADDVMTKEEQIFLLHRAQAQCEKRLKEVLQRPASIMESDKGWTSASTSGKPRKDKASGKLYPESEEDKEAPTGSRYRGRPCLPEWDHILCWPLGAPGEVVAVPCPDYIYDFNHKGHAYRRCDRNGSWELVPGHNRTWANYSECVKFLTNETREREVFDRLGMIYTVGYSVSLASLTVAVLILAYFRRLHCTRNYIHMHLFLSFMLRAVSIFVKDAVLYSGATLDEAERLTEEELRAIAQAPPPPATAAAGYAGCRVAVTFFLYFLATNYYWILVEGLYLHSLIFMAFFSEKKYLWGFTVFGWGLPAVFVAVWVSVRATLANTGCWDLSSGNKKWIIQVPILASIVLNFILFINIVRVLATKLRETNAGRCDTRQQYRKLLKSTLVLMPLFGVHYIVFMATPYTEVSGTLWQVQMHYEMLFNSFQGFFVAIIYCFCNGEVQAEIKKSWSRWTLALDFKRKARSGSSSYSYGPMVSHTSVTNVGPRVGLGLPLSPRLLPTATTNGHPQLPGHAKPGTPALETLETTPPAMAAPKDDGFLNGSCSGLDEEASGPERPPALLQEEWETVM
From the text: Antibody binding was detected with R-Phycoerythrin anti-human IgG.

[7] = biological target: T6, human PTH1R overexpressed on Saos-2 …; test: flow cytometry on Saos-2 cells overexpressing human PTH1R, antibody alone, PE anti-human IgG

T1 sequence (P49190 25-550): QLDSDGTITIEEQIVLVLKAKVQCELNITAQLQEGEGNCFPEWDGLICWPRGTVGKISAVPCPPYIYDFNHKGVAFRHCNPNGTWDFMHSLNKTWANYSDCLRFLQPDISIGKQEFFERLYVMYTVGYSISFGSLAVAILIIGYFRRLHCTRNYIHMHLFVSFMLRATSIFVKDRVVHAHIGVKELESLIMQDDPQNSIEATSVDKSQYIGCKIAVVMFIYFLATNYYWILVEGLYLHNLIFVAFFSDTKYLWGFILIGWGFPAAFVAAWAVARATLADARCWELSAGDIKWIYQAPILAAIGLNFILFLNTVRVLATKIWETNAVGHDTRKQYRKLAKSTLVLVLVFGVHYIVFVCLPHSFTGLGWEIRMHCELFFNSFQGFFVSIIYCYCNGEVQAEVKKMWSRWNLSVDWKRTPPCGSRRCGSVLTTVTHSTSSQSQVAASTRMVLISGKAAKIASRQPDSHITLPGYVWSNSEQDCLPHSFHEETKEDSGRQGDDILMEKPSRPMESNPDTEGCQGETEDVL

B1: XPA.85.329 (antibody, V domains shown)
VH: QMQLVQSGAEVKKPGSSVKVSCKASGGTFSSYAISWVRQAPGQGLEWMGGIIPIFGTANYAQKFQGRVTITADESTSTAYMELSSLRSEDTAVYYCARGYVVARLWGQGTLVTVSS
VL: DIVMTQTPLSLSVTPGQPASISCKSSQSLLHIDGLTYLYWYLQKPGQPPQLLIYEVSHRFSGVSDKFSGSGSGTDFTLTISRVEAEDVGVYYCMQSLHLPITFGQGTRLEIK
notes: IgG; also called Ab329; XPA.329
binding result [1]: no binding (tested: about 160 nM)
IC50, inhibition of PTHrP(1-34)-induced cAMP accumulation [2]: 2.66 nM
IC50, inhibition of PTH(1-34)-induced cAMP accumulation [3]: 16.6 nM
IC50, inhibition of PTHrP(1-34)-induced cAMP accumulation [3]: 6.54 nM
% inhibition of cAMP accumulation at 1 µM PTH(1-34), 267 nM IgG [4]: 79%
% inhibition of cAMP accumulation at 1 µM PTHrP(1-34), 267 nM IgG [4]: 90%
% inhibition of cAMP accumulation at 1 µM PTH(1-34), 267 nM IgG [5]: 50%
% inhibition of cAMP accumulation at 1 µM PTHrP(1-34), 267 nM IgG [5]: 41%
EC50 [6]: 656 nM
EC50 [7]: 7.61 nM
